Where no end group is shown, it is not given here. Side-chain parts run from the residue outwards. The star is where a group is joined. DSPE = CCCCCCCCCCCCCCCCCC(=O)OC[C@H](COP(=O)(O)OCCN*)OC(=O)CCCCCCCCCCCCCCCCC; FAM = 5(6)-carboxyfluorescein

Consider five molecules from patent US11890352B2, “Plectin-targeted liposomes/PARP inhibitor in the treatment of cancer” (University of Virginia Patent Foundation, priority 2018, dated 2024).

For series [1] the following is noted: cited from earlier work.
Another series relates to pancreatic cancer. The settings on record: clinical study; cited from earlier work.
The conditions of series [2]: unlabeled liposomes; cited from earlier work.
Series [3] concerns the target T1, cell surface plectin on ovarian cancer cells (SKOV3, OVCAR8) (human, UniProt Q15149 1-4684).
T1 construct: whole, on cells; Endogenous plectin mislocalized to the cell surface; also called Plectin-1
Nature of the series: cell binding assay on FT132 cells (healthy fallopian tube cells), DiR fluorescence at 780 nm, 1 h at 37 C. The method, then: (§1) FT 132, SKOV3 and OVCAR8 cells were plated in triplicate in a 96 well black plate at a concentration of 5000 cells per well. After 48 h, liposomes at concentrations ranging from […] were incubated with the three cell lines after washing the wells with PBS buffer for 1 h at 37° C. The cells were later washed with PBS and liposomal DiR intensity was measured using a fluorescent plate reader (FLUOstar omega, BMG Labtech Inc. Cary, NC). PTP liposomal binding to the three cell lines was compared with liposomes containing no peptide (background binding) and with NCP (non-specific binding). Background binding by the no peptide liposomes was subtracted from both the non-specific (NCP) and PTP liposomes. To obtain specific binding of PTP liposomes, we subtracted non-specific (NCP) binding from the total binding by the PTP liposomes.
(§2) Figure 2B: Figure 3A: FIGS. 3A-C. PTP liposomes bind to SKOV3 and OVCAR8 cells. Cell binding assay (ELISA) was carried out to assess PTP liposome association to cell surface plectin on SKOV3 and OVCAR8 cells. Liposomes (No Pep, NCP and PTP) at varying concentrations were incubated with FT132, SKOV3 and OVCAR8 cells for 1 h at 37° C. […] NCP binding was subtracted from PTP liposomes to determine specific binding of PTP liposomes to A) FT132, B) SKOV3 and C) OVCAR8 cells for 1 h at 37° C. followed by quantification of DiR using fluorescent plate reader.

In series [4] the target is T2, recombinant his-tagged C-terminus fragment of plectin (4379-4684 aa) (human, UniProt Q15149 4379-4684).
T2 construct: range 4379-4684; also called his-tagged plectin fragment; c-terminus fragment of plectin (4379-4384 aa); not shown: his tag
T2 sequence (looked up): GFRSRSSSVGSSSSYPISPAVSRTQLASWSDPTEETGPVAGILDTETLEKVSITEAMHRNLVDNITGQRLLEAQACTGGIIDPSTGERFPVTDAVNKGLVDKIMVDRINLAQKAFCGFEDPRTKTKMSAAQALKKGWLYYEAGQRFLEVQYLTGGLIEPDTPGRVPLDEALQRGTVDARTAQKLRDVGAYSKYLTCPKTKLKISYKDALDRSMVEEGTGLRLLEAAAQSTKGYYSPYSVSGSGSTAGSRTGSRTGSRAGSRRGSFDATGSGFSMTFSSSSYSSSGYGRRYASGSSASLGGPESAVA
Nature of the series: BLI (ForteBio Octet), his-tagged plectin C-terminus fragment loaded on anti-His sensors, liposomes in solution. The method, then: Biolayer Interferometry (BLI) to Study PTP-Liposomes Binding to C-Terminus Fragment of Plectin Biolayer interferometry (BLI) was performed using ForteBio octect Red 96 system (ForteBio, Menlo Park, CA), we used recombinant C-terminus fragment of plectin (4379-4684 aa). All BLI assays were performed in black 96 well plates (Nunc F96 Micro Well plates, Thermo Fisher, Waltham, MA). The total working volume for samples or buffer was 0.2 mL per well and the rpm setting for each equilibration and loading steps was set at 1000 rpm. The association and dissociation step with C-terminus fragment of plectin and peptide-liposomes was carried out at 600 rpm. Prior to each assay, anti-his biosensor tips were pre-wetted in 0.2 mL PBS for at least 10 min followed by equilibrium with PBS for 100 seconds. Anti-his biosensors were then non-covalently loaded with his-tagged C-terminus fragment ([…]) (100 sec). Subsequently, association with No peptide, NCP (Negative Control Peptide) and PTP liposomes (40 mM) (300 sec) was be carried out. Finally, the dissociation was monitored in PBS for 600 sec.
Figure 2A: FIGS. 2A-B described plectin-targeted peptide (PTP) liposomes binding to Plectin. A) PTP peptide was conjugated to DSPE-PEG-MALEIMIDE via the thiol present on the C-terminus of the peptide. […]
A general note: BLI is a label-free optical method that tracks binding on a fibre tip over time.

The target of series [5] is T1, cell surface plectin on ovarian cancer …. Nature of the series: cell binding assay on SKOV3 cells; DiR fluorescence; NCP and no-peptide liposome binding subtracted; SKOV3 cells. The method, then:
as §1, §2

For series [6] the target is unchanged. Nature of the series: cell binding assay on OVCAR8 cells; DiR fluorescence; NCP and no-peptide liposome binding subtracted; OVCAR8 cells. The method, then: as §1, §2
The target is the same in series [7]. Nature of the series: cell binding assay on FT132 cells (healthy fallopian tube cells), DiR fluorescence at 780 nm, 1 h at 37 C; fit of the SPECIFIC curve; no unit beside the number, concentration axis in nM. The method, then:
as §1, §2

T1 sequence (Q15149 whole entry): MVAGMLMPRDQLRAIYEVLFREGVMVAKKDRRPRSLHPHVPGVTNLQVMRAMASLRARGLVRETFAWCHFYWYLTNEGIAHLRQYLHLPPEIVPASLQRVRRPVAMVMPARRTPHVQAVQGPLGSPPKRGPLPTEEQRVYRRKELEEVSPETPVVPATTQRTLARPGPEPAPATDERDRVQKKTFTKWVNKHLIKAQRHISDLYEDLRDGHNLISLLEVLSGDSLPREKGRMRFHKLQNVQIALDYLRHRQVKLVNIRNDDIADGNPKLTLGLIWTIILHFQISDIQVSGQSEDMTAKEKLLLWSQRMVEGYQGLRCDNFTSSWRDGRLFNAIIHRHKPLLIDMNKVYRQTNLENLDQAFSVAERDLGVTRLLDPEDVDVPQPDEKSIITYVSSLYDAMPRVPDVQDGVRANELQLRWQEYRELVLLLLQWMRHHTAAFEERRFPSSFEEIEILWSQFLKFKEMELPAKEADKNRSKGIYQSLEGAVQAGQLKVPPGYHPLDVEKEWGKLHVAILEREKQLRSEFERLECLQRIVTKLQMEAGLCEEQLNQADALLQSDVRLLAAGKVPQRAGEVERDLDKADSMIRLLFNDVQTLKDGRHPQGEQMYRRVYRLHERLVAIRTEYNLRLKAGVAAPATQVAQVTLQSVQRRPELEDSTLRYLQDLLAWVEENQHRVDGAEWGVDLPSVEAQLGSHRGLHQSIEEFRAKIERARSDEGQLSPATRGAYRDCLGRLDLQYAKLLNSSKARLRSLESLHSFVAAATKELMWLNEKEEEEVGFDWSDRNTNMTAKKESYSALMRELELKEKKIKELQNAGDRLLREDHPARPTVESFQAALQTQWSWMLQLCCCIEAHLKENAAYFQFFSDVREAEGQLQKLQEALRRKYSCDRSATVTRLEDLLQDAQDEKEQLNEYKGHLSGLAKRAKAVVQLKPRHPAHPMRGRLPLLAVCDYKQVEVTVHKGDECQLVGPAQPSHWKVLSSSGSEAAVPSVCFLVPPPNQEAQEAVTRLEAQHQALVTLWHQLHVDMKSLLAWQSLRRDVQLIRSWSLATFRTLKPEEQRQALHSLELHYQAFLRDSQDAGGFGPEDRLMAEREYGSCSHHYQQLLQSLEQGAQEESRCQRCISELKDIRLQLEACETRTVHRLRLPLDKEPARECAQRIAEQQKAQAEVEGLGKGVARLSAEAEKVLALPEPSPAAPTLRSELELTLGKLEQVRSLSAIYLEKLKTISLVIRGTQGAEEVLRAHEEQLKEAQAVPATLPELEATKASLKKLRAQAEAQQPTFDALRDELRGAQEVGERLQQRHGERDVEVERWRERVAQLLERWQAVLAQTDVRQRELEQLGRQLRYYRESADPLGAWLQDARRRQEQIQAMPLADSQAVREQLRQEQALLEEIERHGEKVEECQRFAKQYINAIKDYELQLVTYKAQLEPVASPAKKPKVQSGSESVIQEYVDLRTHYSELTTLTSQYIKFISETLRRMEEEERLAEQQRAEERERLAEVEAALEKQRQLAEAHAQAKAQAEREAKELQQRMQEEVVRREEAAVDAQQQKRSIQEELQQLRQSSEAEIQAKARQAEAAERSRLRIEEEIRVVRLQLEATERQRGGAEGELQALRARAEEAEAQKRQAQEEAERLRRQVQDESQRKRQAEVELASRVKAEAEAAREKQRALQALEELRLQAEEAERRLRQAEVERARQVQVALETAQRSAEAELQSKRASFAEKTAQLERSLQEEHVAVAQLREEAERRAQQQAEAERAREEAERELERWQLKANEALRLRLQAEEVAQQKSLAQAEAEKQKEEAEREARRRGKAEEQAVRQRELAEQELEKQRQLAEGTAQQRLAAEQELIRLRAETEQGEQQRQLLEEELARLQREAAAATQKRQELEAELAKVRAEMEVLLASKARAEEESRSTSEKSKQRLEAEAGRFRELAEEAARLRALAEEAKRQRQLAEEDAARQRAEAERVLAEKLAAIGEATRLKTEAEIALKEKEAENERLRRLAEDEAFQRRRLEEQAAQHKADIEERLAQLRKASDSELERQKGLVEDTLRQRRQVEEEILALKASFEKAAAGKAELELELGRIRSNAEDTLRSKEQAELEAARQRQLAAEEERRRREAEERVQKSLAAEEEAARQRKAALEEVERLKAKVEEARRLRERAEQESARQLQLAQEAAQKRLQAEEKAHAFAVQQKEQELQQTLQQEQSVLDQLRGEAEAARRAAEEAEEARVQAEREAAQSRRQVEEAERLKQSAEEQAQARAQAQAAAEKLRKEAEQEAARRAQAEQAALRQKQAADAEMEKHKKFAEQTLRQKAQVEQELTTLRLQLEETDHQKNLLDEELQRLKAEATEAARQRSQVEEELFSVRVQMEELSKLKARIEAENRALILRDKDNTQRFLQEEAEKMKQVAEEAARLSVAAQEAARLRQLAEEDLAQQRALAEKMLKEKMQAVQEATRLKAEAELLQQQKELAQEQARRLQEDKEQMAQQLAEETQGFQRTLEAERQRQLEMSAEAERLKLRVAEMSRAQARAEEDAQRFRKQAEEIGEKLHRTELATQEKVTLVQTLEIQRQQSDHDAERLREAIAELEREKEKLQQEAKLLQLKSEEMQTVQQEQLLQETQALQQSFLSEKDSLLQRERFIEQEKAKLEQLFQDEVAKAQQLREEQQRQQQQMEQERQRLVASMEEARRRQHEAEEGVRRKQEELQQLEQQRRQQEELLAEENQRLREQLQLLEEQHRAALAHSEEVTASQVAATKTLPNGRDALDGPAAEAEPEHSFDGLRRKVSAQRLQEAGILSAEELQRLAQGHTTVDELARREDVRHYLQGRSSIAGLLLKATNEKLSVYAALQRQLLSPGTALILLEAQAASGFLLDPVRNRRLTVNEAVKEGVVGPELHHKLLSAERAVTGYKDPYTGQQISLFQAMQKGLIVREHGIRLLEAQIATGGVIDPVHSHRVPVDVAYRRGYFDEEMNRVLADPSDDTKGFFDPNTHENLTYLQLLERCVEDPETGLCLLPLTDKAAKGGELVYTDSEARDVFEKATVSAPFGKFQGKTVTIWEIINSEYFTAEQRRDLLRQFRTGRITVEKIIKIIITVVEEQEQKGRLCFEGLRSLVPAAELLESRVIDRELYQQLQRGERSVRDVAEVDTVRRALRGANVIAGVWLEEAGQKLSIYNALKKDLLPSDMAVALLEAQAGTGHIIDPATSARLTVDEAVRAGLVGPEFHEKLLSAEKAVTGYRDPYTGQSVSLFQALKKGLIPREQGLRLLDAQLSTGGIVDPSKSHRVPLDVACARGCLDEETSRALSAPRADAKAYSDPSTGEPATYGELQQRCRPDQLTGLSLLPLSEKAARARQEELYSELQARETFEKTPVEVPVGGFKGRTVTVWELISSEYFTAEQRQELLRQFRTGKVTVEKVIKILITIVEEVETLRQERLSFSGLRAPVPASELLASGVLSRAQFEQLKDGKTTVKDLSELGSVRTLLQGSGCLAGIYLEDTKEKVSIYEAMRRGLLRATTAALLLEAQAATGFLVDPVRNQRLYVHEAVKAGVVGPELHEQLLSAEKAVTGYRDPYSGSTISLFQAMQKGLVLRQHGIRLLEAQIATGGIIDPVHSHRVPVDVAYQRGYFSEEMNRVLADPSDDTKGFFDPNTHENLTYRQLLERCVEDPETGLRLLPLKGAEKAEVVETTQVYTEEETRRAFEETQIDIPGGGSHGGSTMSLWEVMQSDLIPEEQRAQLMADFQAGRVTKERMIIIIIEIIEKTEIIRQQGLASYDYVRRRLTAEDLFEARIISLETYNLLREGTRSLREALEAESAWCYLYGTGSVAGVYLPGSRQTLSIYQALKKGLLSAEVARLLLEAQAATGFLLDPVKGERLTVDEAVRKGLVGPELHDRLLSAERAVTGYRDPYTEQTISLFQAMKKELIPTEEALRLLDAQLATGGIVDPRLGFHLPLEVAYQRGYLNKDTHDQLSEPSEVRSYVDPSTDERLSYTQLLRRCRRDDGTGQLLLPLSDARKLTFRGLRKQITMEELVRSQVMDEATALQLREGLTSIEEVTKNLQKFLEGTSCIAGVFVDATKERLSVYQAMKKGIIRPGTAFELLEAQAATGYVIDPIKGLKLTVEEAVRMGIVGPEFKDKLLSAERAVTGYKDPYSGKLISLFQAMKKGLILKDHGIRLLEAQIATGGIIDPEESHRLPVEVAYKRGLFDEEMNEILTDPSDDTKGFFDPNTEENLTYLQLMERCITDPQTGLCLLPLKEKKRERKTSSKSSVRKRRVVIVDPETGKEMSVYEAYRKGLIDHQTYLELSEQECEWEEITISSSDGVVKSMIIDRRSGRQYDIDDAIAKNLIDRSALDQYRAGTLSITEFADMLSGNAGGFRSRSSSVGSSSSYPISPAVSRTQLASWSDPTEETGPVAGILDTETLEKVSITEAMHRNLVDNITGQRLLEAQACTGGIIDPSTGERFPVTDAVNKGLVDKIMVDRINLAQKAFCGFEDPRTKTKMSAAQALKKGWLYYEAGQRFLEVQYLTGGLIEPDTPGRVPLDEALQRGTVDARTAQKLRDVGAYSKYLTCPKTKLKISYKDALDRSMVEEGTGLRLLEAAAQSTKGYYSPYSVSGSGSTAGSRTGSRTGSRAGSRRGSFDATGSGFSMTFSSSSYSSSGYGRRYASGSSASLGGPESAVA

`O=C(c1cc(Cc2n[nH]c(=O)c3ccccc23)ccc1F)N1CCN(C(=O)C2CC2)CC1` [Olaparib]: the “patients who developed myelodysplastic syndrome and acute myeloid leukemia” value in series [1] is recorded as “About 2%”. Besides, in series [1] (doses necessary to achieve PARP inhibition), the “patients with adverse side effects (neutropenia, thrombocytopenia)” value is given as “About 10%”. With `CNCc1ccc(-c2[nH]c3cc(F)cc4c3c2CCNC4=O)cc1` [Rucaparib], in the series on pancreatic cancer, the patients showing benefit is reported as 36%. Take `COc1cccc2c1C(=O)c1c(O)c3c(c(O)c1C2=O)C[C@@](O)(C(=O)CO)C[C@@H]3O[C@H]1C[C@H](N)[C@H](O)[C@H](C)O1` [doxorubicin]: the “drug loading previously reported” value in series [2] is 200 μg drug per mg of lipid.

B1: NCP liposomes (Negative Control Peptide TALPRLNGGSK(FAM)C conjugated to DSPE-PEG3400-Maleimide and displayed on liposomes) (peptide)
peptide: TALPRLNGGSK(FAM)C([maleimide-PEG3400-DSPE])-NH2
modifications: also: displayed on liposomes
notes: Control peptide, tested only as a display on liposomes
On to B1, for which the binding result in series [3] is “no binding (tested: 0.3 nM)”; in series [4], “no binding”.

B2: PTP liposomes (Plectin Targeting Peptide KTLLPTPGGSK(FAM)C conjugated to DSPE-PEG3400-Maleimide and displayed on DOPC/cholesterol/DSPE-PEG2000/DiR liposomes) (peptide)
peptide: KTLLPTPGGSK(FAM)C([maleimide-PEG3400-DSPE])-NH2
modifications: also: displayed on liposomes
notes: Tested only as a multivalent display on liposomes (about 110-120 nm), not as free peptide; also called Plectin Targeted Peptide; PTP-PEG3400-DSPE
For orientation: Kd means the concentration at which binding is half-saturated. Low readings indicate a tighter complex, high ones a looser complex. With B2, the Kd in series [5] was determined as 0.12 nM; in series [6] it was 0.11 nM; in series [7] it was 0.06 nM.
